Molecular target: TF-TDP-43-FL (UniProt Q13148)
Assay: EMSA
Conditions: biotin-UTP incorporated in transcription; EMSA: 40 mM Tris-HCl pH 7.4, 30 mM KCl, 1 mM MgCl2, 0.01% IGEPAL CA-630, 1 mM DTT, 10 ug yeast tRNA, 10 ug BSA, 10 ng RNA, 200 ng protein in 10 ul, 25 C, 20 min

Chain of TF-TDP-43-FL (Q13148 whole entry): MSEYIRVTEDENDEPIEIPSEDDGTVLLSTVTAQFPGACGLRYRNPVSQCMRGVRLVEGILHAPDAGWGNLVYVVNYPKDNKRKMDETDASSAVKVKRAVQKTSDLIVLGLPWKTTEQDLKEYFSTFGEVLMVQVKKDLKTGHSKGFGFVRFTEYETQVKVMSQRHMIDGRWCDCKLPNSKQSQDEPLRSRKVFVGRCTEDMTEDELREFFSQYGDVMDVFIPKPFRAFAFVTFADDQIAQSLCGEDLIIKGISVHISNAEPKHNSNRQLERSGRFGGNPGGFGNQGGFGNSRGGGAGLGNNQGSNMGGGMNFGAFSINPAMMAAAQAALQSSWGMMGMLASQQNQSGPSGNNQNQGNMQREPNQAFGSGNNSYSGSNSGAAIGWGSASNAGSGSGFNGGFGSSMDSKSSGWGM

## GGGAGAGCAAAGUGAUGAGUAAUACUGGCUGGAGCCCCAAAGAGGCACGUGUGUGUGUUUGUGUGUGUGUGUAUAUGCUUGUCAGUGCAUGCACGUGUAUGUCUGGGAGUACAAAUGGGUGCGACUGGUUGUAGGGAACUAGCUAUGUGCCUUCUAUUAGGCCAUGACAGUCAAACUGAUAAGAUCUGAUUGC [scaRNA28]
  binding: binds
